From patent US20220088146A1, “Melanocortin Receptor-Specific Peptide Formulations and Methods for Gastrointestinal Tract-Specific Delivery” (Palatin Technologies, Inc., priority 2018, published 2022)
Bridge positions count the residues as written; N and C are the ends. Square brackets hold non-standard residues; d marks the D form. Nle = CCCC[C@H](N)C(=O)O; Dab = NCC[C@H](N)C(=O)O; Dap = NC[C@H](N)C(=O)O

Experiments:
[1] = target: human melanocortin-1 receptor (human) (UniProt Q01726); assay: cell-based or functional assay
human melanocortin-1 receptor (human), sequence (Q01726 whole entry): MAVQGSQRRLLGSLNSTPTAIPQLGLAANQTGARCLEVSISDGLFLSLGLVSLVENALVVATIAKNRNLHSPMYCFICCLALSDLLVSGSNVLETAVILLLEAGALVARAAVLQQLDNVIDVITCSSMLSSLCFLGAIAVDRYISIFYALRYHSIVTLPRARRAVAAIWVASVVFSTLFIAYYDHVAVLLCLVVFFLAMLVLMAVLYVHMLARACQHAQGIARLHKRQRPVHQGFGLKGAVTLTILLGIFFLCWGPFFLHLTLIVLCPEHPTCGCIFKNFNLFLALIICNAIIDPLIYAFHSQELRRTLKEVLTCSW

[2] = target: human melanocortin-1 receptor (human) (UniProt Q01726); assay: [I125]-NDP-α-MSH competition, hMC1r HEK-293 membranes
[3] = target: human melanocortin-4 receptor (human) (UniProt P32245); assay: [I125]-NDP-α-MSH competition, hMC4r HEK-293 membranes
human melanocortin-4 receptor (human), sequence (P32245 whole entry): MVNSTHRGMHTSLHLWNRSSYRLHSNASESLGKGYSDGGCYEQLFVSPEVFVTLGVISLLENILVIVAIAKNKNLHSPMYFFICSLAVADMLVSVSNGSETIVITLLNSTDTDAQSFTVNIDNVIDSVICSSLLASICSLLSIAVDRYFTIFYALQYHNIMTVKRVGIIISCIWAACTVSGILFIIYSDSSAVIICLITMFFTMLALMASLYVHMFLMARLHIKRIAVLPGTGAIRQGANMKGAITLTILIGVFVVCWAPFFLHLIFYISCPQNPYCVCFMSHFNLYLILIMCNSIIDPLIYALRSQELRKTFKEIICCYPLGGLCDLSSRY

B1: Ac-Nle-cyclo(Asp-His-D-Phe-Arg-Dap)-Trp-NH2 (peptide)
peptide: Ac-[Nle]DH[dF]R[Dap]W-NH2
modifications: lactam 2-6
SMILES: CCCC[C@H](NC(C)=O)C(=O)N[C@H]1CC(=O)NC[C@@H](C(=O)N[C@@H](Cc2c[nH]c3ccccc23)C(N)=O)NC(=O)[C@H](CCCNC(=N)N)NC(=O)[C@@H](Cc2ccccc2)NC(=O)[C@H](Cc2c[nH]cn2)NC1=O
MC-1 EC50 (average; cAMP HBL) [1]: 0.195 nM
MC-1 Emax (average; cAMP HBL) [1]: 88%
Ki [2]: 2 nM
Ki [3]: 1320 nM

B2: Ac-Nle-cyclo(Glu-His-D-Phe-Arg-Dab)-Ala-NH2 (peptide)
peptide: Ac-[Nle]EH[dF]R[Dab]A-NH2
modifications: lactam 2-6
MC-1 EC50 (average; cAMP HBL) [1]: 0.08 nM
MC-1 Emax (average; cAMP HBL) [1]: 97%
Ki [2]: 2 nM
Ki [3]: 7480 nM

B3: Ac-Nle-cyclo(Glu-His-D-Phe-Ala-Dab)-Trp-NH2 (peptide)
peptide: Ac-[Nle]EH[dF]A[Dab]W-NH2
modifications: lactam 2-6
SMILES: CCCC[C@H](NC(C)=O)C(=O)N[C@H]1CCC(=O)NCC[C@@H](C(=O)N[C@@H](Cc2c[nH]c3ccccc23)C(N)=O)NC(=O)[C@H](C)NC(=O)[C@@H](Cc2ccccc2)NC(=O)[C@H](Cc2c[nH]cn2)NC1=O
MC-1 EC50 (average; cAMP HBL) [1]: 0.115 nM
MC-1 Emax (average; cAMP HBL) [1]: 72%
Ki [2]: 0.8 nM
Ki [3]: 10000 nM

B4: Ac-Nle-cyclo(Glu-His-D-Phe-Arg-Dab)-Lys-NH2 (peptide)
peptide: Ac-[Nle]EH[dF]R[Dab]K-NH2
modifications: lactam 2-6
SMILES: CCCC[C@H](NC(C)=O)C(=O)N[C@H]1CCC(=O)NCC[C@@H](C(=O)N[C@@H](CCCCN)C(N)=O)NC(=O)[C@H](CCCNC(=N)N)NC(=O)[C@@H](Cc2ccccc2)NC(=O)[C@H](Cc2c[nH]cn2)NC1=O
MC-1 EC50 (average; cAMP HBL) [1]: 0.175 nM
MC-1 Emax (average; cAMP HBL) [1]: 91%
Ki [2]: 2 nM
Ki [3]: 7380 nM

B5: Ac-Nle-cyclo(Glu-His-D-Phe-Gly-Dab)-Trp-NH2 (peptide)
peptide: Ac-[Nle]EH[dF]G[Dab]W-NH2
modifications: lactam 2-6
SMILES: CCCC[C@H](NC(C)=O)C(=O)N[C@H]1CCC(=O)NCC[C@@H](C(=O)N[C@@H](Cc2c[nH]c3ccccc23)C(N)=O)NC(=O)CNC(=O)[C@@H](Cc2ccccc2)NC(=O)[C@H](Cc2c[nH]cn2)NC1=O
MC-1 EC50 (average; cAMP HBL) [1]: 4 nM
MC-1 Emax (average; cAMP HBL) [1]: 59%
Ki [2]: 9 nM
Ki [3]: 10000 nM

B6: Ac-Nle-cyclo(Glu-Pro-D-Phe-Arg-Dab)-Trp-NH2 (peptide)
peptide: Ac-[Nle]EP[dF]R[Dab]W-NH2
modifications: lactam 2-6
SMILES: CCCC[C@H](NC(C)=O)C(=O)N[C@H]1CCC(=O)NCC[C@@H](C(=O)N[C@@H](Cc2c[nH]c3ccccc23)C(N)=O)NC(=O)[C@H](CCCNC(=N)N)NC(=O)[C@@H](Cc2ccccc2)NC(=O)[C@@H]2CCCN2C1=O
MC-1 EC50 (average; cAMP HBL) [1]: 0.18 nM
MC-1 Emax (average; cAMP HBL) [1]: 97%
Ki [2]: 3 nM
Ki [3]: 185 nM
